Test results reported in paper PMC4521846.
Where two headings read alike, the source gives them in different places.

Assays:
[1] = molecular target: Plasminogen (Homo sapiens) (UniProt P00747); settings: cited from earlier work
[2] = molecular target: Plasminogen (Homo sapiens) (UniProt P00747); settings: cited from earlier work; remark: listed apart in the source
[3] = molecular target: Translation elongation factor Tuf of Acinetobacter baumannii type strain ATCC 19606, recombinant, N-terminally hexahistidine-tagged (Acinetobacter baumannii ATCC 19606) (UniProt B7H1K5); experiment: ELISA; immobilised Tuf (5 ug/ml) incubated with increasing amounts of plasminogen; apparent dissociation constants by non-linear regression
[4] = molecular target: Elongation factor Tuf of Legionella pneumophila, recombinant, hexahistidine-tagged (Legionella pneumophila); experiment: ELISA
[5] = molecular target: Translation elongation factor Tuf of Acinetobacter baumannii type strain ATCC 19606, recombinant, N-terminally hexahistidine-tagged (Acinetobacter baumannii ATCC 19606) (UniProt B7H1K5); experiment: ELISA; immobilised TufAb, plasminogen (10 ug/ml) with increasing concentrations of the lysine analog tranexamic acid (up to 50 mM)
[6] = molecular target: Translation elongation factor Tuf of Acinetobacter baumannii type strain ATCC 19606, recombinant, N-terminally hexahistidine-tagged (Acinetobacter baumannii ATCC 19606) (UniProt B7H1K5); experiment: ELISA; immobilised TufAb, plasminogen (10 ug/ml) with increasing concentrations of NaBr (up to 1 M)

DnaK (from UniProt B8DT62)
Kd [1]: 0.011 µM

Enolase (from UniProt B8DTI9)
Kd [2]: 0.042 µM

Human glu-plasminogen (natural protein)
Kd [3]: 0.057 µM
Kd [4]: 0.069 µM
percent decrease of binding with 50 mM tranexamic acid, against reactions without it [5]: 50%
percent of binding left with 1 M NaBr, against reactions without NaBr [6]: 55%
